Laboratory results: publication PMC8289069, “Functional requirement of terminal inverted repeats for efficient ProtoRAG activity reveals the early evolution of V(D)J recombination”

Biological target: T1, mRAG1F (mouse, UniProt P15919 389-456)
T1 sequence: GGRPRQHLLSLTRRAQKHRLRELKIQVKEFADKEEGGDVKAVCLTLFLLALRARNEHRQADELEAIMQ
Experiment: DNA-binding assay (type not stated); EMSA: 25 mM MOPS pH 7.0, 50 mM KCl, 2 mM DTT, 1.5 mM CaCl2, 2.5% glycerol, 50 nM HMGB1, 100 nM ss nonspecific oligo, ~50 nM each RAG, 25 C 20 min; pull-down: 50 mM Tris pH 7.5, 150 mM NaCl, 0.5% NP40, 5% glycerol, 1.5 mM CaCl2, 4 C
Details: protein: recombinant; chain copies: 2; label: 5' biotin on strand 1; blunt

B1: 12RSS (dsDNA)
DNA 1: GATCTGGCCTGTCTTACACAGTGATACAGACCTTAACAAAAACCCTGCAG
DNA 2: CTGCAGGGTTTTTGTTAAGGTCTGTATCACTGTGTAAGACAGGCCAGATC
B1: binds.
